# Data from US20230399393A1, “METHODS TO EXTEND HEALTH-SPAN AND TREAT AGE-RELATED DISEASES” (National University of Singapore, priority 2020, published 2023).
# B1: X203: mouse anti-mouse IL-11 IgG antagonist antibody; VH SEQ ID NO:22, VL SEQ ID NO:23 (antibody, V domains shown)
# VH: EVQLQQSGPELVKPGASVKIPCKASGYTFTDYNMDWVKQSHGKSLEWIGDINPHNGGPIYNQKFTGKATLTVDKSSSTAYMELRSLTSEDTAVYYCARGELGHWYFDVWGTGTTVTVSS
# VL: DIVLTQSPASLAVSLGQRATISCRASKSVSTSGYSYIHWYQQKPGQPPKLLIYLASNLDSGVPARFSGSGSGTDFTLNIHPVEEEDAATYYCQHSRDLPPTFGGGTKLEIK
# Columns and labels:
# C57BL6/J mice = assay: Inflammatory markers in liver, kidney and muscle of old mice (QPCR); assay type: in vivo, mouse; details: 40 mg/kg once every three weeks, vs IgG
# Method: (§1) FIG. 52. A neutralizing IL-11 antibody reduces multiple markers of inflammation in kidneys of old mice. Wild-type C57BL6/J mice were treated with an intra-peritoneal injection of anti-IL11 (X203; 40 mg/kg, once every three weeks) or an isotype IgG control (11E10, 40 mg/kg, once every three weeks) from 55 weeks of age until 110 weeks of age. 110 week-old mice were sacrificed and organs harvested, snap frozen and RNA extracted using standard procedures. Samples were analyzed by quantitative RT-PCR (QPCR) using primers specific for Ccl2, Ccl5, Tnfα, Il1β, Il11, Il6 or Gapdh.
# as §1, with “53.” for “52.”, “livers” for “kidneys”
# as §1, with “54.” for “52.”, “skeletal muscle (soleus)” for “kidneys”, “sacrificed,” for “sacrificed”, “Gapdh. […]” for “Gapdh.”
# Total RNA was extracted from AML12 or snap-frozen tissues using Trizol (Invitrogen) and RNeasy Mini Kit (Qiagen). […] Expression data were normalized to GAPDH mRNA expression and fold change was calculated using 2^−ΔΔct method.
# C57Bl/6J mice [1] = assay: Mouse Frailty Index in aged mice treated from 55 to 110 weeks of age; assay type: in vivo; details: mice aged 110 weeks; 40 mg/kg IP every 3 weeks from age 55 weeks; vs isotype control IgG
# Method: C57Bl/6J mice aged 46 weeks were obtained from the Jackson Laboratory, and randomised on a 1:1 basis to receive either X203 or an isotype control IgG antibody.
# (§2) From age 55 weeks (human equivalent of ˜45 years old (i.e. middle age)) to age 110 weeks (human equivalent of ˜75 years old), mice were administered with 40 mg/kg of either X203 or isotype-matched control IgG via intra-peritoneal injection every 3 weeks.
# (§3) At age 110 weeks, frailty was assessed using the Mouse Frailty Index described in Rizzo et al. Curr Protoc Mouse Biol. (2018) 8(2):e45, which is hereby incorporated by reference in its entirety. In this protocol, mice are individually observed and evaluated for the absence or presence and severity of 27 different characteristics each scored as 0, 0.5, or 1 based on level of severity. A frailty index score is calculated as the cumulative score of all measures. As a separate measurement of frailty, core body temperature was recorded, as core body temperature is known to decrease with increasing frailty in mice (Reynolds et al., Mechanisms of Ageing and Development (1985) 30(2):143-52). Data were analysed by 2-way ANOVA.
# End-point frailty scoring was performed 2 days prior to sacrifice using the accepted frailty scoring system (Sukoff Rizzo et al. 2018, Current Protocols in Mouse Biology 8 (2): e45.)
# C57Bl/6J mice [2] = assay: Core body temperature of aged mice; assay type: in vivo, mouse; details: mice aged 110 weeks; 40 mg/kg IP every 3 weeks from age 55 weeks; vs isotype control IgG
# Method: as §2, §3
# AML12 cells = assay: In vitro model of senescence induction, qRT-PCR at day 7; assay type: cell-based, mouse; details: 2 ug/ml from day 2, H2O2 0.75 mM, vs isotype-matched control IgG
# Method: Senescent hepatic mouse cells were generated from cells of the mouse hepatocyte cell line AML12 as described in Tripathi et al., Star Protocols (2020) 1:100064 (hereby incorporated by reference in its entirety).
# Briefly, AML12 cells were grown to 50% confluency and senescence was induced by treating the cells with a sub-lethal concentration of H2O2 (0.75 mM) for 1 h, followed by 23 h recovery per day, for a total of 7 days (as described in Tripathi et al., Star Protocols (2020) 1:100064). From day 2 onwards, 2 ug/ml of X209/X203 or isotype-matched control IgG was added to the cultures during the 23h recovery period.
# Total RNA was isolated at day 7, and levels of p21 (Cdkn1a), […], Il11 and Tgfb gene expression were evaluated by qRT-PCR. Briefly, total RNA was extracted from cell lysates using Trizol (Invitrogen) followed by RNeasy column (Qiagen) purification. cDNAs were synthesized with iScript™ cDNA synthesis kit (Bio-Rad) according to manufacturer's instructions. Gene expression analysis was performed with either TaqMan (Applied Biosystems) or fast SYBR green (Qiagen) using the StepOnePlus Real-Time PCT System (Applied Biosystems) over 40 cycles. Expression data for p21 (Cdkn1a), Il1b, Il11 and Tgfb were normalised to Gapdh expression, and fold change was calculated using the 2^−ΔΔCt method.
# C57Bl/6J mice [3] = assay: Body-composition assessment via echo MRI; assay type: in vivo, mouse; details: baseline age 55 weeks vs 108-109 weeks, vs IgG control
# Method: as §2
# Mice also underwent body-composition assessment via echo MRI both at baseline (age 55 weeks) and at 108-109 weeks. This enabled calculation of the change in body fat mass and lean (muscle) mass in the X203 and IgG control treatment groups. Gastrocnemius and soleus muscles were also harvested from the mice at age 110 weeks and their weights were recorded. Data were analysed by 2-way ANOVA.
# End-point total body fat and lean mass measurements were performed 2 days prior to sacrifice by EchoMRI analysis using 4in1 Body Composition Analyzer for Live Small Animal.
molecule,measurement,setting,value
B1,"markers of inflammation (CCL2, CCL5, TNFa, IL-1 b, IL-11 and IL-6) in kidney",C57BL6/J mice,reduces
same,"markers of inflammation (CCL2, CCL5, TNFa, IL-1 b, IL-11 and IL-6) in liver",C57BL6/J mice,reduces
same,"markers of inflammation (CCL2, CCL5, TNFa, IL-1 b, IL-11 and IL-6) in skeletal muscle",C57BL6/J mice,reduces
same,frailty index,C57Bl/6J mice [1],significant reduction
same,body temperature,C57Bl/6J mice [2],significantly higher
same,gene expression of Il11,AML12 cells,trended towards a reduced level
same,gene expression of Tgfb,AML12 cells,significantly reduce
same,fat mass gained (change in body fat mass),C57Bl/6J mice [3],significantly less
same,lean mass,C57Bl/6J mice [3],significantly greater
